We go through one molecule from US20070036810A1, “Cyclic amp response element activator proteins and uses related thereto” (priority 2003, published 2007).

Series [1] concerns GAL4 DNA binding sites (UAS-Luc, pFR-Luc reporter). As to the kind of experiment: GAL4 DNA binding domain fusion transactivation assay (pFR-Luc) in HEK 293 cells. To be noted: normalized to pCMV-BD vector. Type of series: cell-based. The source says: To determine if CREAP proteins can act as a transcription activators, various regions of all 3 CREAP homologs (amino acids 300-650 of CREAP1, amino acids 296-694 of CREAP2 and amino acids 335-635 of CREAP3) were expressed as fusion proteins with the DNA binding domain of GAL4 and tested for the ability to activate expression of a reporter gene linked to GAL4 protein binding sequences (UAS-Luc (pFR-Luc reporter). Briefly, the indicated regions of CREAP1, CREAP2 and CREAP3 were amplified by PCR and subcloned in frame into pCMV-BD vector (Stratagene) encoding GAL4 DNA binding domain. Selected plasmids and empty vector (pCMV-SPORT6) were transfected into HEK 293 cells at 75 ng/well using Fugene6 transfection reagent (Roche) as described above. pFR-Luc reporter (Stratagene) encoding firefly luciferase gene driven by minimal promoter linked to 5 concatamerized GAL4 binding sites (UAS) was co-transfected at 100 ng/well. As a positive control, the reporter was also co-transfected with a plasmid encoding GAL4-CREB fusion protein (Stratagene) alone or in the presence of pFC-PKA an expression construct encoding catalytic subunit of protein kinase A (Stratagene) to activate the CREB kinase inducible activation domain. Fold induction was compared to the reporter's activity measured in the cells transfected with pCMV-BD an expression vector carrying GAL4 DNA binding domain only.
Expression constructs encoding full length CREAP1, CREAP2 and CREAP3 as well as a Gal4 DNA binding domain alone or fused with C-terminal portions of CREAP1, CREAP2 and CREAP3 were tested for the ability to induce expression of a luciferase gene controled by a minimal promoter linked to GAL4 DNA binding sites (pFRLuciferase). The data shown are normalized to the value seen with pCMV-BD vector co-transfected with pFR-Luc reporter.

Series [2] concerns the target T1, CREB-GAL4 fusion molecule (UniProt P04386+P16220).
T1 construct: host or cells: HLR cell line (5x GAL4 element-luciferase reporter)
As to the kind of experiment: In vivo kinase assay, CREB-GAL4 fusion in HLR cells. It is filed as cell-based. To be noted: 40 hours after transfection. As to the method: For in vivo kinase assay, activation domains of CREB or ATF2 transcription factors fused with the yeast GAL4 DNA binding domain (1-147 Amino Acids) constructs are used (Stratagene, PathDetect In Vivo Signal Transduction Pathway trans-reporting Systems). The HLR cell line that contains a 5× GAL4 DNA binding element and TATA box driving luciferase reporter is used per manufacturer's protocol (Stratagene). 10^4 HLR cells are split into each well of 96 well tissue culture plates. After 16 hours, cells are transfected with 100 ng of Creb-GAL4 or ATF2-GAL4 fusion constructs, 30 ng of Renilla luciferase control plasmid together with 100 ng of pCMVSPORT6, pCMVSPORT-CREAP1, pFC-PKA or pFC-MEKK (Stratagene) activator plasmids respectively. Transfection is done with Fugene6 reagent (Roche Molecular Biochemicals, Basel, Switzerland) according to the manufacturers manual. Forty hours after transfection, a Dual-Glo Luciferase assay (Promega) is conducted using the manufacturer's protocol.
As CREAP1 strongly activates CRE promoter transcription, we next investigated whether CREAP1 works through the CREB pathway. […]

T1 sequence (P04386+P16220 fused): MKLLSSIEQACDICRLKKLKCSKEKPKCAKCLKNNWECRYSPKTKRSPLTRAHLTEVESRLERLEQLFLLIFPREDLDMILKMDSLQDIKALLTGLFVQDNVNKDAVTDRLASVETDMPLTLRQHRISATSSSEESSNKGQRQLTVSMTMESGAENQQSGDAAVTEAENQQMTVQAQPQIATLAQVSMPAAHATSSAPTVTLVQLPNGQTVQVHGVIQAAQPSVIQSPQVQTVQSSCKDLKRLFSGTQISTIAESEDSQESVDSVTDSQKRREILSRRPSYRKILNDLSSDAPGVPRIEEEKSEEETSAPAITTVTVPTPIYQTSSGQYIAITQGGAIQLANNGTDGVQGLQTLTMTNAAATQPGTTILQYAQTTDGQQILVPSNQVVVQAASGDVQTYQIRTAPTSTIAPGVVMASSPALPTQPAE

B1: CREAP1: human CRE activating protein 1, 650 amino acids, SEQ ID NO 2; expressed from pCMVSPORT-CREAP1 (protein)
chain: MATSNNPRKFSEKIALHNQKQAEETAAFEEVMKDLSLTRAARLQLQKSQYLQLGPSRGQYYGGSLPNVNQIGSGTMDLPFQPSGFLGEALAAAPVSLTPFQSSGLDTSRTTRHHGLVDRVYRERGRLGSPHRRPLSVDKHGRQADSCPYGTMYLSPPADTSWRRTNSDSALHQSTMTPTQPESFSSGSQDVHQKRVLLLTVPGMEETTSEADKNLSKQAWDTKKTGSRPKSCEVPGINIFPSADQENTTALIPATHNTGGSLPDLTNIHFPSPLPTPLDPEEPTFPALSSSSSTGNLAANLTHLGIGGAGQGMSTPGSSPQHRPAGVSPLSLSTEARRQQASPTLSPLSPITQAVAMDALSLEQQLPYAFFTQAGSQQPPPQPQPPPPPPPASQQPPPPPPPQAPVRLPPGGPLLPSASLTRGPQPPPLAVTVPSSLPQSPPENPGQPSMGIDIASAPALQQYRTSAGSPANQSPTSPVSNQGFSPGSSPQHTSTLGSVFGDAYYEQQMAARQANALSHQLEQFNMMENAISSSSLYSPGSTLNYSQAAMMGLTGSHGSLPDSQQLGYASHSGIPNIILTVTGESPPSLSKELTSSLAGVGDVSFDSDSQFPLDELKIDPLTLDGLHMLNDPDMVLADPATEDTFRMDRL
modifications: human
As for B1, the “Fold Induction” value in series [1] turned out to be 2.468. Moreover, the “transactivation of the CREB-GAL4 fusion molecule on the GAL4 promoter” value in series [2] is recorded as “strongly stimulates”.
